Results from article PMC9323360, “Cloning, Expression, Purification, and Characterization of β-Galactosidase from Bifidobacterium longum and Bifidobacterium pseudocatenulatum” (Molecules, 2022).

Substrate: O=[N+]([O-])c1ccccc1O[C@@H]1O[C@H](CO)[C@H](O)[C@H](O)[C@H]1O
Experiment: purified protein

B1: BLGLB1 (Bifidobacterium longum) (protein)
chain: MTTRRTFRWPSLLTESGRGIAFGGDYNPDQWSEETLDEDIRLMVQAGVNTVALAIFSWDKIEPREGEFTFEWLDHVIDKLGAAGIAVDLASATATAPLWLYERHPEVLPIDRYGHVVNAGSRQSWQPTSPVLKEYALRLCRKLAEHYKDNPYVTAWHMGNEYGWNNRYDYSDNALAAFRTWCEAKYGTVDALNEAWGTAFWSQHVNSFDEVLLPRHMGGDSMVNPPQQLDYERFGNDMLLDFYKAERDAIEEICPGKPFTTNFMVSTDQCTMDYAQWANEVDFVSNDHYFHEGESHLDELACSDALMDSLALGKPWYVMEHSTSAVQWKPLNMRKRAGELMRDSLAHVAMGADAINFFQWRQSASGAEAFHSAMVPHAGSDTKLFRGVCELGAALKTLSDAGVQDTELKRADTAILFSAESEWATRSETLPSMKLNHWHDVRDWYRGYLDAGARADVVPLAYDWSGYQTIVLPTVIALSDEDTRRIADFAENGGTVIVGYATGLIDEHFHIGLGGYPGAGNGLLRDMLGIRSEEFNILGEEAEDEPAEIGLSNGLTTRLWQNDVTSVAPDTRVLATYVGTAAADWELDGVPAITSHPHGQGAAIYVGCDLGRHDITHLLKELNTTAPSDERAPDQRPGGGEINAATTTAAAATHDPRILHTIRQSSDGTIRFDFYLNRSKQPVAVNGVEGDPIIAHRCETDAVGYTLNRNAILIAKTSC
Q: How did the Km (pH 5.5, 45 °C) turn out when B1 was run?
A: 1900 ± 100 µM

Q: What about the Vmax (pH 5.5, 45 °C) of the same protein?
A: 3700 ± 100 (oNPG)

Q: And the kcat (pH 5.5, 45 °C)?
A: 1700 ± 40 s⁻¹

Q: What about the kcat/Km (pH 5.5, 45 °C) of the same protein?
A: 870 (oNPG)

B2: BPGLB1 (Bifidobacterium pseudocatenulatum) (protein)
chain: MHRTFKWPELLTDNGKGIAYGGDYNPDQWSEDVWDEDVRLMKQAGVNTVAVAIFSWDRIQPEENRWDFGWLDRIIDKLGKAGIAVDLASATATAPLWLYEKHPEVLPQDKFGHPVNAGSRQSWSPTSPVFKEYALTLCRKLAERYGTNPYVTAWHMGNEYGWNNRYDYSDNALNAFRLWCERKYGTIENLNKAWGTTFWGQEMNGFHEVLIPRFMGADSMVNPGQKLDFERFGNDMLLDFYKAERDAIAEICPDKPFTTNFMVSTDQCCMDYADWAEEVDFVSNDHYFHEGESHIDELFCSDALMDSLALGKPWYVMEHSTSAVQWKPLNARKRKGETVRDSIAHVAMGADAINFFQWRASAFGAESFHSALVPHAGEDTKLFRQVCELGAALKTLGDAGVQGTELEQSDTAILFSAESEWATRSETLPSMKLNHWHDVRDWYRAFLNAGTRADIVPLKYDWNAYKTVVLPTVIMLSAEDTQRLADFAAAGGRVVIGYATGLIDENFHTWLGGYPGAGDGLLREMLGIRGEEFNILGAEAEGEPSEIRLSSGAVTRLWQNDVNVDGERAQVLATYEGEEADEWELDGTAAITRNPYGSGETYFVGCDLNVADLTEFVRENIVEDSANVANPADSDVLHTVRKSADATFDFYLPRGKKEIALQGIEGEPIYLFQAEAEERTGSYTVHRNGVLVVKRA
Q: With B2 as the protein, how does the Km (pH 6.0, 45 °C) read?
A: 1300 ± 300 µM

Q: And the Vmax (pH 6.0, 45 °C)?
A: 1.1 ± 0.1 (oNPG)

Q: And the kcat (pH 6.0, 45 °C)?
A: 0.5 ± 0.02 s⁻¹

Q: And the kcat/Km (pH 6.0, 45 °C)?
A: 0.36 (oNPG)
